In patent publication US20260258115A1 (MAPP BIOPHARMACEUTICAL, published 2026):

B1: ADI-14374 (antibody, V domains shown)
VH: QVQLVQSGGVVVQPGGSLRLSCAASGFNFDDFTMHWVRQAPGKGLEWVSLITWDGGITYYADSVKGRFTISRDNGKNSLYLRMNSLRTEDTALYYCAKDGDRYSGYAFLDYWGQGTLVTVSS
VL: SYELTQPPSVSVAPGKTARLTCGGNNIGSESVHWYQQRPGQAPVLVSYYNGDRPSGIAERISASKSGNTATLTIYRVEAGDEADYYCQVWHSSSDHFVFGTGTQLTVL
notes: full-length IgG; also called Ab 42
B2: ADI-19487 (antibody, V domains shown)
VH: QVTLKESGPALVKPTQTLTLTCTFSGLSISTSGMCVSWIRQPPGKALEWLARIDWDDDKYYSTSLKTRLTISKDTSKNQVVLTMTNMDPVDTATYYCARINYYDSSGYYVYYFDYWGQGTLVTVSS
VL: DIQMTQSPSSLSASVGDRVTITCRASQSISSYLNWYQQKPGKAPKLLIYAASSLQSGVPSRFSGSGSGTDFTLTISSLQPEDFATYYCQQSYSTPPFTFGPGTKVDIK
B3: ADI-14370 (antibody, V domains shown)
VH: EVQLVESGGGVVQPGKSLRLSCAASGFSFSTFAMHWVRQAPGKGLEWVAVISYDGSNKFYADSVKGRFTISRDSSKNTLYLQMNSLRAEDTAVYYCARGGYSSGWYVTHFDYWGQGTLVTVSS
VL: QSVLTQPPSASGSPGQSVTISCTGTSSDVGGYNYVSWYQQHPGKAPKLMIYEVSKRPSGVPDRFSGSKSGNTASLTVSGLQAEDEADYYCSSYAGSNNLYVFGTGTKLTVL
notes: full-length IgG; also called Ab 38
B4: ADI-14378 (antibody, V domains shown)
VH: QVQLVESGGGLVQPGGSLRLSCAASGFTFSSYWMHWVRQAPGKGLVWVSRINSDGSSPTYADSVKGRFTISRDNAKNTVFLQMNSLRAEDTAVYYCARESWELIRGDAFDIWGQGTTVTVSS
VL: DIQMTQSPSSLSASVGDRVTITCRASQSISSSLNWYQQKPGKAPNLLIYAASTLQSGVPSRFSGSGSGTDFTLTISSLQPEDFATYYCQQSYRTPRTFGQGTKVEIK
notes: full-length IgG; also called Ab 46
B5: ADI-41519 (antibody, V domains shown)
VH: QVQLVESGPGLVKPSETLSLTCNVSGGSIITSGSYWGWIRQPPGKGLTWIGSISYSGTTYYNPSLRSRLTISLDTSRNHFSLQLTSVSAADTAVYYCARAFYEVWTGSEIPGDFDRWGQGTLVTVSS
VL: EIVLTQSPGTLSLSPGERATLSCRASQSVSSSYLAWYQQKPGQAPRLLIYGASSRAIDIPDRFSGSGSGTDFTLTISRLEPEDFAVYYCQQFRRSPWTFGQGTKVDIK
B6: ADI-41522 (antibody, V domains shown)
VH: QVQLVQSGAEVKKPGSSVKVSCKASGGTFNNFPISWVRQAPGQGLEWMGGIIPMFGRANYAQKFQGRVTITADESTTTVYMALRSLRSEDTAVYYCARPDYDVLTGFEGAFDIWGQGTMVTVSS
VL: QSALTQPASVSGSPGQLITISCTGTSRDVGGYNYVSWYQQHPGKAPKLMIYDVTNRPSGVSNRFSGSKSGNTASLTISGLQSEDEADYYCSSYTSTTTWVFGGGTKLTVL
B7: ADI-41542 (antibody, V domains shown)
VH: EVQLVESGVAVKKPGESLKISCKGSGYNFDSFWIGWVRQLPGKGLEWMGIIFPGDSDTRYGPSFQGQVTISADKSINTAYLQWRSLKASDTAMYYCARHGLGGYDNSGYNLWGHGTMVTVSS
VL: DIVMTQSPSSLSASVGDRVTITCQASHDISTSLNWYQQKPGKAPNLLISDASTLERGVPSRFSGGGSGTEFTFTISSLQPEDIATYYCQQFENLPITFGQGTRLEIK
B8: ADI-41515 (antibody, V domains shown)
VH: QVQLVESGGGLVQPGGSLRLSCAASGFTFSDYAMSWVRQAPGKGLVWVSSISGSGKFTYYEDSLRGRVTISRDNSKNTVYLHMNSLRTEDTALYYCARLRIPVINEVDGAMDVWGQGTTVTVSS
VL: SYELTQLPSVSVSPGQTARITCSGDALPKKFAYWYQQKSGQAPVLVIYEDTGRPSGIPERFSGSTSGTTATLTINGAQVEDEGDYYCYSADSSDNQGVFGGGTKVTVL
B9: ADI-43643 (antibody, V domains shown)
VH: QVQLVQSGGGLVKPGGSLRLSCAASGFTFSSYSMNWVRQAPGKGLEWVSSISSSSSYIYYADSVKGRFTISRDNAKNSLYLQMNSLRAEDTAVYYCARVLSGYSYGYDYWGQGTLVTVSS
VL: QSVLTQPPSVSGAPGQRVTISCTGSSSNIGAGYDVHWYQQLPGTAPKLLIYGNSNRPSGVPDRFSGSKSGTSASLAITGLQAEDEADYYCQSYDSSLSGSVFGTGTKVTVL
B10: ADI-41518 (antibody, V domains shown)
VH: EVQLVESGGGLVKPGGSLRLSCAASGFTFSSYSMNWVRQAPGKGLEWVSSISSSSSYINYADSVKGRFTISRDNAKNSLYLQMNSLRAEDTALYYCARDLGYCSDTSCTPGIGYWGQGTLVTVSS
VL: QPVLTQPPSVSGAPGQRVTISCTGSSSNIGAGYDVHWYQQLPGTAPKLLIYGNSNRPSGVPDRFSGSKSGTSASLAITGLQAEDEADYYCQSYDSGLSPWVFGGGTKLTVL
B11: ADI-41505 (antibody, V domains shown)
VH: QVQLQQSGAGLLKPSETLSLTYVVYGGSFSGYYWSWIRQPPGKGLEWVGDINHSTTTNYNPSLESRITISIDTSKNQFSLNLSSVTAADSAVYYCARGPKECTSSSCDRFGVDYFYYGMDVWGRGTTVTVSS
VL: QSVLTQPPSVSGAPGQRVTISCTGSSANIGAGYDVHWYQQFPGTAPKLLIFGNSNRPSGVPDRFSGSKSGTSASLAITGLQAGDEADYYCQSYDGTLGGWVFGGGTQLTVL
B12: ADI-41520 (antibody, V domains shown)
VH: EVQLLESGGGVVRPGGSLRLSCAASGFSFDDYGMTWVRQAPGKGLEWVSGINWNGISTDYADSVKGRFTISRDNAKNSVYLQMNSLRAEDTALYYCARIGGVVVIASTAYYYGMDVWGQGTTVTVSS
VL: DIQLTQSPSSLSAYVGDRVTITCRASQSIRNHLNWYQQKPGKAPQLLIYTASSLQDGVPSRFSGSGSGTDFTLAISSLQPEDFATYYCQQSHSMPPTFGQGTRLEIK
B13: ADI-41467 (antibody, V domains shown)
VH: EVQLVESGGGLVKPGGSLRLSCAASGFSFSSYNMNWVRQAPGKGLEWVSSISGGSSFVNYADSVKGRFTISRDNAKNSLYLQMSSLKAEDTAIYYCARDPVYCSAASCSAYFDSWGQGSLVTVSS
VL: QSVLTQPPSVSGAPGQRVTISCTGSSSNIGAGYDVHWYQQLPGTAPKLLIYGNNNRPSGVPDRFSGFKSGSSASLAITGLQAEDEADYYCQSYDIGLSDSHVVFGGGTQLTVL
B14: ADI-41345 (antibody, V domains shown)
VH: EVQLVQSGAEVRKPGESLKISCKGSGYNFASYWIAWVRQMPGKGLEWMGIIFPGDSDTRYSPSFQGQVTISVDKSISTAYLQWSSLKASDTAIYYCATSKYTFGYLDWGQGTLVTVSS
VL: NFMLTQPHSVSESPGKTVTISCTRSSGSIASNYVQWYQQRPGSAPTTVIYEDNQRPSGVPDRFSGSIDSSSNSASLTISGLKTEDEADYYCQSYDTSNQVFGTGTKVTVL
B15: ADI-41346 (antibody, V domains shown)
VH: QVQLVQSGPEVKKPGESLKISCTLSASGLTTYWIGWVRQMPAKGLEWMGIIFPGDSDTRYSPSFQGQVTISADKSTNTAYLQWSGLKASDTAIYYCATLQTPVTGLDQWGQGTLVTVSS
VL: NFMLTQPHSVSESPGKTVTISCTRSSGNIARSYVQWYQQRPGSAPTTVIHEDDQRPSGVPDRFSGSIDTSSNSASLTISGLKTEDEADYYCQSYDPSNYVFGTGTKVTVL
B16: ADI-41348 (antibody, V domains shown)
VH: QVQLQESGPGLVKPSQTLSLTCAVSGGSISSGGYYWSWIRQHPGKGLEWIGYIYYSGSTYYNPSLKSPVTISVDTSKNQFSLKLTSVTAADTAVYYCARGDYYFDGSGRTTAAFDIWGQGTMVTVSS
VL: DIQVTQSPSSLSASVGDRVTITCRASQSISTFLNWYQQKPGRAPKLLIYDASNLQSGVPSRVSGSGSGTDFTLTISSLHPEDFATYYCQQSYTTPYTFGQGTKVDIK
B17: ADI-41347 (antibody, V domains shown)
VH: EVQLVESGPGLVKPSGTLSLTCAVSGGSVSSDNWWSWVRQPPGKGIEWIGEIYPSGGTNYNPSLNSRVTISVDKSKNQFSLKLNSVTAADTAIYYCARAPFDSSGYHSNSVWGQGTLVTVSS
VL: ETTLTQSPLSLPVTPGEPASISCRSSQSLLHSNGHNYLDWYVQKPGQSPQLLIYLSSNRASGVPDRFSGSGSGTDFTLRISRVEAEDVGVYYCMQPLQTPQTFGQGTKVEIK
B18: ADI-41349 (antibody, V domains shown)
VH: EVQLLESGGGLVQPGRSLRLSCTGSGFTFGDYAMNWVRQAPGKGLEWVGLIRSKDYGGTTEFAASLKGRLTISRDDSKSIAYLQMHSLKTEDSAVYYCTRAHLTDYTDINGYQYYFDYWGQGSPVTVSS
VL: DIQMTQSPSSLSASVGDRVTITCQASQDISNFLNWYQQRPGKAPKLLIHDASNLETGVPSRFSGSGSRTEFTFTISSLQPEDIGTYYCQHYDNFPYTFGQGTKVEIK
B19: ADI-41343 (antibody, V domains shown)
VH: EVQLVESGGGLVKPGGSLRLSCAASGFTFSSYYMNWVRQAPGKGLEWVSSISGGSSYISYADSVKGRFTISRDNAKNSLYLQMNSLRAEDTAVYYCARVDTPMVRGYYFDYWGQGTLVTVSS
VL: QSVLTQPPSVSGAPGRRVTISCTGSSSNIGAGYDVHWYQQLPGTAPKLLIFANSNRPSGVPDRFSGSKSGTSASLAITGLQAEDEADYYCQSYDSSLSGSVFGGGTKVTVL
B20: ADI-41344 (antibody, V domains shown)
VH: EVQLVESGGGLVKPGGSLRLSCAASGSSFSSYYMNWVRQAPGKGLEWVSSISSSSTYIDYADSVKGRFTISRDNAKNSLFLQMNSLRAEDTAVYYCARVSSPMIRGYYLDYWGQGTLVTVSS
VL: QPVLTQPPSVSGAPGQRVTISCTGSSSNIGAGYDVHWYQQLPGTAPKLVIHGNSNRPSGVPDRFSGSKSGTSASLAITGLQGEDEADYYCQSYDSSLSGSVFGGGTKLTVL

These binders were tested against RSV F on RSV subtype B virus (mKate-RSV B 18537) (respiratory syncytial virus B 18537, UniProt P13843 26-574) (assay: cell-based or functional assay).
With B1 the “Neut IC50 subtype B” value was 0.86 µg/mL.
With B2 the “Neut IC50 subtype B” value was 7.96 µg/mL.
B3 was tested, and the “Neut IC50 subtype B” value was 1.38 µg/mL.
In the case of B4, the “Neut IC50 subtype B” value is reported as 21.6 µg/mL.

Each binder was assayed against RSV F on RSV-A2 virus (Respiratory Syncytial Virus (RSV-A2), UniProt P03420 26-574) (assay: cell-based or functional assay).
B5 was tested, and the “Neutralization IC50 (RSV subtype A)” value was > 25 µg/mL.
B6 was tested, and the “Neutralization IC50 (RSV subtype A)” value was > 25 µg/mL.
In the case of B7, the “Neutralization IC50 (RSV subtype A)” value is reported as 0.69 µg/mL.
B8 was tested, and the “Neutralization IC50 (RSV subtype A)” value was > 25 µg/mL.
In the case of B9, the “Neutralization IC50 (RSV subtype A)” value is reported as > 25 µg/mL.
With B10 the “Neutralization IC50 (RSV subtype A)” value was > 25 µg/mL.
In the case of B11, the “Neutralization IC50 (RSV subtype A)” value is reported as > 25 µg/mL.
For B12, the “Neutralization IC50 (RSV subtype A)” value was > 25 µg/mL.
For B13, the “Neutralization IC50 (RSV subtype A)” value was > 25 µg/mL.

Each binder was assayed against RSV F on RSV-A2 virus (Respiratory syncytial virus (RSV-A2)) (assay: cell-based or functional assay).
B14 was tested, and the “Neutralization IC50 (RSV subtype A)” value was > 25 µg/mL.
In the case of B15, the “Neutralization IC50 (RSV subtype A)” value is reported as > 25 µg/mL.
With B16 the “Neutralization IC50 (RSV subtype A)” value was 0.0765 µg/mL.
For B17, the “Neutralization IC50 (RSV subtype A)” value was > 25 µg/mL.
B18 was tested, and the “Neutralization IC50 (RSV subtype A)” value was > 25 µg/mL.
In the case of B19, the “Neutralization IC50 (RSV subtype A)” value is reported as 0.177 µg/mL.
In the case of B20, the “Neutralization IC50 (RSV subtype A)” value is reported as 0.0637 µg/mL.

These binders were tested against T1, RSV prefusion F (preF), subtype B (respiratory syncytial virus subtype B) (assay: BLI, IgG).
T1 construct: also called Prefusion subtype B
With B1 the Kd was 2.09 nM.
In the case of B3, the Kd is reported as 4.18 nM.
B4 showed a Kd of 6.1 nM.
